According to IntAct's records for PubMed 24726729:

B1: CCHC-type zinc finger nucleic acid binding protein (Homo sapiens), P62633 (parent)
chain: MSSNECFKCGRSGHWARECPTGGGRGRGMRSRGRGGFTSDRGFQFVSSSLPDICYRCGESGHLAKDCDLQEDACYNCGRGGHIAKDCKEPKREREQCCYNCGKPGHLARDCDHADEQKCYSCGEFGHIQKDCTKVKCYRCGETGHVAINCSKTSEVNCYRCGESGHLARECTIEATA

Variants of: B1
Conditions: with anm1_rat Prmt1, Q63009
Sequence of anm1_rat Prmt1, Q63009 (Q63009 whole entry, looked up): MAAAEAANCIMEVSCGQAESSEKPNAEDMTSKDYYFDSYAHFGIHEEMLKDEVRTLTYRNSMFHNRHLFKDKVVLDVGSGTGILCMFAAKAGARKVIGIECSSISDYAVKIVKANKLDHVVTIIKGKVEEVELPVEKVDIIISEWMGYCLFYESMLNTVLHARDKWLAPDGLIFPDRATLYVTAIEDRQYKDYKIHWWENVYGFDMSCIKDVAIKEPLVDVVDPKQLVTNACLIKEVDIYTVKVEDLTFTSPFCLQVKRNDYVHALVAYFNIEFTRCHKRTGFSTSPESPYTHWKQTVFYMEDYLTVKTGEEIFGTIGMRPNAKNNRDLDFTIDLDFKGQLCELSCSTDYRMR

| effect of a mutation on the interaction | Variant |
| --- | --- |
| decreasing interaction | R25A;R27A |
